Experiment [1] has as its target T1, CD79b endogenously expressed on the cell surface (malignant B cell lines, normal B cells in PBMC, CLL … (human, UniProt P40259 29-229)).
T1 construct: whole, on cells; On cells CD79b stands in the B-cell receptor complex with CD79a and surface Ig; also called cell surface CD79b; endogenous CD79b
T1 sequence (looked up): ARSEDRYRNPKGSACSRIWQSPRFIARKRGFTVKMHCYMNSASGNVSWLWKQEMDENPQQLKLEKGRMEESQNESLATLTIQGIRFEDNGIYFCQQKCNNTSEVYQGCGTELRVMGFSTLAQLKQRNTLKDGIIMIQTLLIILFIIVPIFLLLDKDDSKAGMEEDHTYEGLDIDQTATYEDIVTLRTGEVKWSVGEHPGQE
In words: flow cytometry on SU-DHL-4 cells; anti-human IgG1-PE; MFI (PE); table under the graph. Here is the method: (§1) The binding affinities of anti-CD79b antibodies to malignant B cell lines were tested. […] The cells were then incubated with 100 μl anti-human IgG1-PE (Invitrogen, cat: 12-4998-82), 1:1000 dilution, for 30 min on ice, washed with 200 ul PBS for three times before flow cytometry analysis.
(In general: In flow cytometry, cells or beads pass a laser one at a time.)

Experiment [2] has as its target T1, CD79b endogenously expressed on the …. In words: flow cytometry on Ramos cells; anti-human IgG1-PE; MFI (PE); table under the graph. The method, then: as §1
Experiment [3] has the same target. In words: flow cytometry on PBMC of CLL Donor 0255 (B lymphocytes); PE goat anti-human IgG Fc; MFI PE. The method, then:
To determine the binding affinities of the anti-CD79b antibodies to cell surface CD79b on Chronic Lymphocytic Leukemia (CLL) patient's B lymphocytes, a cell-based binding assay was conducted. […] CLL patient PBMCs were purchased from the company Bioscience. […] Specifically, 2.5×10⁴ PBMC cells in 50 μl FACS buffer (1×PBS+2% BSA+2 mM EDTA) were seeded in each well of a V bottom 96-well plate. […] The mixture was incubated on ice for 30 minutes, and then washed twice with FACS buffer. The cells were re-suspended in 100 μl FACS buffer containing PE conjugated goat anti-human IgG Fc (1:1000) and anti-human CD19 (BV421), and incubated for 30 minutes on ice in darkness. After washing twice with FACS buffer, the cells were re-suspended in 100 μl of FACS buffer and analyzed with a Cytek cytometer.

Experiment [4] has the same target. In words: flow cytometry on a cell line expressing endogenous CD79b (not named on the sheet or in the text); MFI (PE).
Experiment [5] has the same target. In words: flow cytometry on PBMC of Donor 2890, B cells marked with CD19-BV421; anti-human IgG1-PE; MFI (PE); table under the graph. Here is the method: (§2) The binding affinities of anti-CD79b antibodies to endogenous B cells were tested. […] The cells were then incubated with […] mixture of anti-human IgG1-PE (Invitrogen, Cat #: 12-4998-82), 1:1000 dilution; CD19-BV421 (Biolegend, Cat #:302230, 1:400 dilution) for 30 min on ice, and washed with 200 ul PBS for three times before flow cytometry analysis.

Experiment [6] has the same target. In words: flow cytometry on BJAB cells; anti-human IgG1-PE; MFI (PE); table under the graph. Here is the method:
as §1

For experiment [7] the target is unchanged. In words: flow cytometry on PBMC of Donor 889, B cells marked with CD19-BV421; anti-human IgG1-PE; MFI (PE); table under the graph. Here is the method:
as §2

Experiment [8] deals with T2, cynomolgus CD79b recombinant protein (cynomolgus).
T2 chain: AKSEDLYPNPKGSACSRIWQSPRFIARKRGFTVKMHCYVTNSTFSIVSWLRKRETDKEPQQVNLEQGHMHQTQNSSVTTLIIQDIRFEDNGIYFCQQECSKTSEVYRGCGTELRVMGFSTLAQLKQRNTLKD
In words: ELISA, coated cynomolgus CD79b recombinant protein. Here is the method:
(§3) Binding affinities of anti-CD79b antibodies to human and cynomolgus CD79b recombinant proteins were tested by ELISA. 1 ug/ml (in PBS buffer) of human or cynomolgus CD79b recombinant proteins were coated on an ELISA plate overnight. ELISA plates were washed and blocked with blocking buffer (PBS+1% BSA) followed by incubation with serially diluted anti-CD79b primary antibodies. Anti-CD79b antibody binding was quantified using an anti-human IgG HRP secondary antibody (Biolegend Catalog #410902) and HRP substrate.
Background: ELISA stands for enzyme-linked immunosorbent assay.

Experiment [9] has as its target T1, CD79b endogenously expressed on the …. In words: flow cytometry on Daudi cells; anti-human IgG1-PE; MFI (PE); table under the graph. Here is the method: as §1
The target in experiment [10] is T3, human CD79b recombinant protein (human, UniProt P40259 29-159).
T3 construct: also called human CD79b ECD antigen; recombinant human CD79b ECD
T3 sequence: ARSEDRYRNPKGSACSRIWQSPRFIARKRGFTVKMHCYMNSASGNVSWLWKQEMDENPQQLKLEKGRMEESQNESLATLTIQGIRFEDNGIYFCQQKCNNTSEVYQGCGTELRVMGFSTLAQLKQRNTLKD
In words: ELISA, coated human CD79b recombinant protein. Here is the method: as §3

The target in experiment [11] is T1, CD79b endogenously expressed on the …. In words: flow cytometry on PBMC of Donor 2235, B cells marked with CD19-BV421; anti-human IgG1-PE; MFI (PE); table under the graph. The method, then:
as §2

For experiment [12] the target is unchanged. In words: flow cytometry on PBMC of Donor 356, B cells marked with CD19-BV421; anti-human IgG1-PE; MFI (PE); table under the graph (the graph's legend prints ch44D2). The method, then:
as §2

Experiment [13] has as its target T3, human CD79b recombinant protein. In words: ELISA on recombinant human CD79b ECD; A 450nm.
Experiment [14] concerns the target T1, CD79b endogenously expressed on the …. In words: flow cytometry on Nalm-6 cells; anti-human IgG1-PE; MFI (PE); table under the graph. Here is the method: as §1
In experiment [15] the target is T3, human CD79b recombinant protein. In words: BLI; antibody at 10 ug/ml captured on anti-human IgG Fc probes, hCD79b in solution; same value printed in the rows for 18.3 and 9.14 nM hCD79b. The method, then: (§4) Binding affinities of anti-CD79b antibodies to human CD79b recombinant proteins were tested by BLI. 10 ug/ml of anti-CD79b antibodies were captured by anti-human IgG Fc probes (Gator Bio Catalog #160024). […] Absolute kD was determined by applying a 1:1 binding model (Global Rmax unlinked).
(In general: BLI is a label-free optical method that tracks binding on a fibre tip over time.)

For experiment [16] the target is unchanged. In words: BLI, antibody captured on anti-human IgG Fc probes, human CD79b in solution, 1:1 model. Here is the method:
as §4

The target of experiment [17] is T1, CD79b endogenously expressed on the …. In words: flow cytometry on BJAB cells; anti-human IgG1-PE; MFI (PE); table under the graph; plateau only about 1.1x10^5 against about 6x10^5 for the others. Here is the method: as §1
The target in experiment [18] is T2, cynomolgus CD79b recombinant protein. In words: ELISA; cynomolgus CD79b recombinant protein coated at 1 ug/ml; anti-human IgG HRP; OD 450 nm. Here is the method: as §3
Experiment [19] has as its target T1, CD79b endogenously expressed on the …. In words: flow cytometry on Daudi cells; anti-human IgG1-PE; MFI (PE); table under the graph; curve reaches only about 0.2x10^5 at 40 nM. Here is the method: as §1
Experiment [20] shares this target. In words: flow cytometry on Ramos cells; anti-human IgG1-PE; MFI (PE); table under the graph; curve reaches only about 0.3x10^5 at 40 nM. Here is the method: as §1
Experiment [21] has the same target. In words: flow cytometry on Nalm-6 cells; anti-human IgG1-PE; MFI (PE); table under the graph; fit of a flat curve, far above the highest concentration of 40 nM. The method, then:
as §1

The results in this text go back to patent US20260209346A1 (LTZ THERAPEUTICS, published 2026).

B1: ch44G2 (antibody, human IgG1, kappa, V domains shown)
VH: QSVRETGGGLVQPGGSLKLSCKASGFTINIDYWISWVRQAPGKGLEWIGIIDPGDGTTYFAIWVSGRFTISFDNTQNTVDLQMNSLTAADTATYFCVREFSASAYQYDLWGPGTLVTVSS
VL: DLVMTQTPSSVSAAVGGTVSINCRASEDIENYLAWYQQKPGQPPKLLIYRASTLSSGVSSRFSGSGSGTEFTLTISGVQPDDAATYYCQQGYRNSNVDNPFGGGTEMVVKR
notes: Rabbit/human chimeric IgG1 kappa; also called chimeric 44G2
Broadly, the EC50 is the midpoint of the concentration-response curve. The low end stands for greater potency, the high end for weaker potency. The term EC50 (read off the curve) denotes the midpoint of the concentration-response curve. In general, IC50 refers to the midpoint of a concentration-inhibition curve. For B1, the EC50 was found to be 720 pM in experiment [1]; 860 pM in experiment [2]; 675 pM in [5]; 670 pM in experiment [6]; 95.5 pM in experiment [7]; 790 pM in experiment [9]. For the same molecule, the concentration giving a half-maximal response (EC50) in [11] amounted to 727 pM; in experiment [12], 357 pM; in [14], 1590 pM. Moreover, the entries for the concentration giving a half-maximal response (EC50 (read off the curve)) in experiment [3], in experiment [4] and in experiment [13] were about 800 pM, about 200 pM and about 500 pM, respectively. In addition, the IC50 worked out at 3000 pM in experiment [8] and 630 pM in experiment [10].

B2: ch29C3 (antibody, human IgG1, kappa, V domains shown)
VH: QSVKESGGGLFKPTDTLTLTCTVSGIDLNNYAMNWVRQAPGKGLDWIGLIGASGSTYYADWAKGRFTISKTSTTVDLKMTSLTTEDTATYFCAIGISATAHTSNIWGPGTLVAVSL
VL: ALVMTQTPSSVSAAVGGTVTINCQASQNIDSNLAWYQQKPGQPPKLLIYDASALASGVPSRFKGSGSGTEYTLTISGVEPDDAATYYCQQDDSSSNVDNPFGGGTEVVVKR
notes: Rabbit/human chimeric IgG1 kappa; also called chimeric 29C3
What is called koff is the rate constant with which the complex falls apart. Broadly, the kon is a measure of how fast the partners come together. Usually Kd stands for the constant that tells how readily two partners part at equilibrium. With B2, the off-rate (koff) in experiment [15] was found to be 0.000168 s⁻¹. Besides, the on-rate constant (kon) in experiment [15] was 353000 M⁻¹ s⁻¹. Moreover, in [16], the equilibrium dissociation constant (Kd) was 476 pM. The EC50 came to 990 pM in [17], 14200 pM in experiment [19], 11300 pM in experiment [20] and 508000 pM in experiment [21]. Also, the concentration for half-maximal inhibition (IC50) in experiment [10] came to 170 pM. Also, the binding result in experiment [18] is listed as “no binding (tested: about 13 nM)”.
